Data: the Immune Epitope Database (IEDB)

Legend:
HLA-A*11:01 = assay: IEDB peptide-MHC binding, purified MHC/direct/fluorescence; filed as Kd, often an IC50 or EC50 that approximates it; ≥ and ≤ were set here for values at or beyond the usual limits of such assays; conditions: source organism: SARS-CoV1
HLA-A*03:01 = assay: as above; conditions: source organism: SARS-CoV1

AITTSNCAK
Kd (HLA-A*11:01): 54 nM
Kd (HLA-A*03:01): 646 nM

ALRANSAVK
Kd (HLA-A*11:01): 1760 nM
Kd (HLA-A*03:01): 197 nM

ASLPTTIAK
Kd (HLA-A*11:01): 19 nM
Kd (HLA-A*03:01): 56 nM

ATFSVPMEK
Kd (HLA-A*11:01): 28 nM
Kd (HLA-A*03:01): 265 nM

ATNNVFRLK
Kd (HLA-A*11:01): 233 nM
Kd (HLA-A*03:01): 401 nM

ATVVIGTSK
Kd (HLA-A*11:01): 30 nM
Kd (HLA-A*03:01): 232 nM

AVDPAKAYK
Kd (HLA-A*11:01): 124 nM
Kd (HLA-A*03:01): 1670 nM

AVLQSGFRK
Kd (HLA-A*11:01): 80 nM
Kd (HLA-A*03:01): 259 nM

GTLSYDNLK
Kd (HLA-A*11:01): 48 nM
Kd (HLA-A*03:01): 365 nM

GVAMPNLYK
Kd (HLA-A*11:01): 73 nM
Kd (HLA-A*03:01): 60 nM

ITCVVIPSK
Kd (HLA-A*11:01): 290 nM
Kd (HLA-A*03:01): 1880 nM

KCYGVSATK
Kd (HLA-A*11:01): 8380 nM
Kd (HLA-A*03:01): 2070 nM

KLFAAETLK
Kd (HLA-A*11:01): 234 nM

KMQRMLLEK
Kd (HLA-A*11:01): 341 nM
Kd (HLA-A*03:01): 305 nM

KVIQPRVEK
Kd (HLA-A*11:01): 168 nM
Kd (HLA-A*03:01): 595 nM

LIGANYLGK
Kd (HLA-A*11:01): 1470 nM
Kd (HLA-A*03:01): 999 nM

QLFKPLTKK
Kd (HLA-A*11:01): 237 nM
Kd (HLA-A*03:01): 215 nM

RLYYDSMSY
Kd (HLA-A*11:01): 237 nM
Kd (HLA-A*03:01): 52 nM

SSNVANYQK
Kd (HLA-A*11:01): 23 nM
Kd (HLA-A*03:01): 442 nM

SSSLTSLLK
Kd (HLA-A*11:01): 51 nM
Kd (HLA-A*03:01): 276 nM

VTFQGKFKK
Kd (HLA-A*11:01): 91 nM
Kd (HLA-A*03:01): 321 nM

VVYRGTTTY
Kd (HLA-A*11:01): 117 nM
Kd (HLA-A*03:01): 42 nM

YIFFASFYY
Kd (HLA-A*11:01): 347 nM
Kd (HLA-A*03:01): 1180 nM
